Target: E2 ectodomain of HCV strain 1a154 (Hepatitis C virus genotype 1a, isolate …, strain)
Experiment: ELISA

- binding result: binds
B1: HEPC108 IgG (antibody, V domains shown)
VH: QVQLVQSGAEVKKPGSSVKVSCKASGDTFSSSAISWVRQAPGQGLEWMGGSIPIFGATKYAQKFQGRVTITTDKSTSTAYMELSSLRFEDTAVYYCARASIVNISGFVRFRFDSWGQGTLVTVSS
VL: DIQMTQSPSSLSASVGDRVTITCQASQDISNYLNWYQQKPGKAPKLLIYDVSNLEIGVPSRFSGSGSGTEFTLTINSLQPEDLATYFCQHYDDVPPVYTFGQGTSLEIK

— doi:10.1101/2025.08.04.668577 (bioRxiv, 2025)
